Molecular target: NADPH-dependent thioredoxin reductase from Methanosarcina mazei strain Gö1 (Methanosarcina mazei strain Gö1)
Test: SEC; Sephacryl S-300 gel filtration in 10 mM Tris-HCl pH 7.6, 100 mM NaCl, 2 mM 2-mercaptoethanol; column calibrated with the Bio-Rad Gel Filtration Standard; monomer to dimer

- stoichiometry N: 2
Substance: NADPH-dependent thioredoxin reductase from Methanosarcina mazei strain Gö1 (enzyme)
